The values that follow come from patent publication US20240376151A1, “STAPLED PEPTIDES AND METHODS THEREOF” (FOG PHARMACEUTICALS, INC., priority 2022, published 2024).

In the test the target is T1, beta-catenin (Homo sapiens, UniProt P35222).
T1 construct: made in house; host or cells: E. coli BL21 (DE3) pLysS
T1 sequence (P35222 134-665): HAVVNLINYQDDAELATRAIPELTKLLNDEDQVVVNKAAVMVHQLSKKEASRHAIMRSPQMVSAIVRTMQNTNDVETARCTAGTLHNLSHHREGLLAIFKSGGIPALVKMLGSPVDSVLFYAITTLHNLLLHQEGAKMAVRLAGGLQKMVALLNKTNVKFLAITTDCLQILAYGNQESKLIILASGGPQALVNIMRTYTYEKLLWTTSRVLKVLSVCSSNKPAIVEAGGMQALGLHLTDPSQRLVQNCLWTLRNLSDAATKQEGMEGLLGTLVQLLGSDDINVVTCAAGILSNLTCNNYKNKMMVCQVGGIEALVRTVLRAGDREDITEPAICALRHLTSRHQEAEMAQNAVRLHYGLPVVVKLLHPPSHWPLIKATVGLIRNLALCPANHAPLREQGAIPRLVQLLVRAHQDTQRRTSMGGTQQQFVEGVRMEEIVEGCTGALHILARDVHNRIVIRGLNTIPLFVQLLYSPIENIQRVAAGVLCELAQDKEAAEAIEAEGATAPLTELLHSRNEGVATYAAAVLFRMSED
Kind of test: Phage Library Screening with NGS, beta-catenin. In kind it is binding. The note with it: for Target Concentration 10 (phage screen NGS readout): beta-catenin target concentration 10; for Target Concentration 10 (phage screen NGS readout) / Target Concentration 30 (phage screen NGS readout) / Target Concentration 100 (phage screen NGS readout) / Target Concentration 300 (phage screen NGS readout): no competitor; for Target Concentration 30 (phage screen NGS readout): beta-catenin target concentration 30; for Target Concentration 100 (phage screen NGS readout): beta-catenin target concentration 100; for Target Concentration 300 (phage screen NGS readout): beta-catenin target concentration 300; for Target Concentration 1000 (phage screen NGS readout): beta-catenin target concentration 1000.

In the case of DPADYDCILAAHICTNI, the “Target Concentration 10 (phage screen NGS readout)” value is recorded as 2, the “Target Concentration 30 (phage screen NGS readout)” value was 18, the “Target Concentration 100 (phage screen NGS readout)” value worked out at 70 and the “Target Concentration 300 (phage screen NGS readout)” value turned out to be 147. Further, the “Target Concentration BLANK (phage screen NGS readout)” value (“Target Concentration BLANK” for short) (first column) came to 0. Also, where the note is “fourth column”, the “Target Concentration BLANK” value is reported as 0. Further, under “second column”, the “Target Concentration BLANK” value was 0. The “Target Concentration BLANK” value (third column) is on record as 0. Further, the “Target Concentration 1000 (phage screen NGS readout)” value (first 1000 column) is 118. Also, where the note is “second 1000 column”, the “Target Concentration 1000 (phage screen NGS readout)” value came to 122.
In the case of DPAILNCHVAAWNCHSF, the “Target Concentration 10 (phage screen NGS readout)” value is 0, the “Target Concentration 30 (phage screen NGS readout)” value was found to be 0, the “Target Concentration 100 (phage screen NGS readout)” value amounted to 1 and the “Target Concentration 300 (phage screen NGS readout)” value is 8. Also, the “Target Concentration BLANK” value (first column) is given as 0. Further, where the note is “fourth column”, the “Target Concentration BLANK” value is listed as 0. The “Target Concentration BLANK” value (second column) stood at 0. For the same sequence, the “Target Concentration BLANK” value (third column) came to 0. In addition, the “Target Concentration 1000 (phage screen NGS readout)” value (first 1000 column) stood at 4. In addition, for the setting “second 1000 column”, the “Target Concentration 1000 (phage screen NGS readout)” value is 23.
Turning to DPAEVDCIMAAHICVWD, the “Target Concentration 10 (phage screen NGS readout)” value was 0, the “Target Concentration 30 (phage screen NGS readout)” value is listed as 0, the “Target Concentration 100 (phage screen NGS readout)” value turned out to be 31 and the “Target Concentration 300 (phage screen NGS readout)” value came out at 42. Besides, the “Target Concentration BLANK” value (first column) is 0. Further, the “Target Concentration BLANK” value (fourth column) amounted to 0. Also, for the setting “second column”, the “Target Concentration BLANK” value amounted to 0. Further, the “Target Concentration BLANK” value (third column) is reported as 0. Further, the “Target Concentration 1000 (phage screen NGS readout)” value (first 1000 column) is recorded as 40. Also, the “Target Concentration 1000 (phage screen NGS readout)” value (second 1000 column) was 51.
As for DPAVMACYEAAFQCAYW, the “Target Concentration 10 (phage screen NGS readout)” value is listed as 0, the “Target Concentration 30 (phage screen NGS readout)” value worked out at 0, the “Target Concentration 100 (phage screen NGS readout)” value was determined as 0 and the “Target Concentration 300 (phage screen NGS readout)” value is recorded as 4. The “Target Concentration BLANK” value (first column) turned out to be 0. Under “fourth column”, the “Target Concentration BLANK” value is given as 0. Also, for the setting “second column”, the “Target Concentration BLANK” value is 0. Further, the “Target Concentration BLANK” value (third column) amounted to 1. The “Target Concentration 1000 (phage screen NGS readout)” value (first 1000 column) stood at 12. Besides, the “Target Concentration 1000 (phage screen NGS readout)” value (second 1000 column) stood at 0.
As for DPAYWDCTHAALLCNLD, the “Target Concentration 10 (phage screen NGS readout)” value worked out at 3, the “Target Concentration 30 (phage screen NGS readout)” value worked out at 14, the “Target Concentration 100 (phage screen NGS readout)” value was 152 and the “Target Concentration 300 (phage screen NGS readout)” value was 42. Also, the “Target Concentration BLANK” value (first column) worked out at 0. Under “fourth column”, the “Target Concentration BLANK” value was found to be 0. Besides, the “Target Concentration BLANK” value (second column) was found to be 1. The “Target Concentration BLANK” value (third column) came out at 2. Moreover, the “Target Concentration 1000 (phage screen NGS readout)” value (first 1000 column) is 543. Also, the “Target Concentration 1000 (phage screen NGS readout)” value (second 1000 column) is 409.
For the sequence DPAEWDCMHAALICEVH, the “Target Concentration 10 (phage screen NGS readout)” value came to 0, the “Target Concentration 30 (phage screen NGS readout)” value was found to be 10, the “Target Concentration 100 (phage screen NGS readout)” value came to 55 and the “Target Concentration 300 (phage screen NGS readout)” value was 54. The “Target Concentration BLANK” value (first column) is 0. Also, the “Target Concentration BLANK” value (fourth column) stood at 0. Also, the “Target Concentration BLANK” value (second column) was 0. Besides, the “Target Concentration BLANK” value (third column) is given as 0. Moreover, under “first 1000 column”, the “Target Concentration 1000 (phage screen NGS readout)” value is listed as 67. Further, the “Target Concentration 1000 (phage screen NGS readout)” value (second 1000 column) was 89.
